Here are results for one molecule from article doi:10.1101/2024.08.19.608659.

This data set addresses hATP5A1 pre-protein (F1-ATP synthase subunit alpha precursor) (Homo sapiens, UniProt P25705). The data set can be described thus: EMSA. (In EMSA bound probe runs differently from free probe, usually more slowly.)

Take CUUUCCGCUCGGCUGUUUUCCUGCGCAGGAGCCGCA (ssRNA) [RPL13 RNA ligand]: the binding result is reported as “binds”.
